# The DeepSol protein solubility set
# Test: soluble on expression in E. coli; label from the status in PepcDB or PDB records
row,Sequence,soluble on expression in E. coli
1,MSLKILVLGIGNILFGDEGIGVHLSNLLKVNYRFEGPHQVDVIDGGTLAQLLIPLITSYDYVIVIDCVDAGGGKIGEVYFFDFDNVPNVITWQGSAHEVEMLQTLRMTEVNGDLPPVKIVGVIPSIIGSETAFDLSKEVAEASVTMEKIVLNHLQELGVEITRIDSKTIDEIAPLSYKGEGHHHHHH,soluble
2,MSGINARPTNSIFSNLCQIFSSLQGCLKTQTPFSDGLFSLKSPYRSIRKHRRIIMEVTISAIINGEFADQYGKRGSQFNENGMLI,not soluble
3,GPGSMDTECLRARHSECIDLASVQLRRQLMDSGIPFTEAEIAALPARFVELLISRLEMFRQREVETRAAVDKCRRETEVEEMRFEQLREATERVQGEKRIISSKISAAVSEYMREDKLEKEKQRERHNELQEVFRQVEKKEAEHRREIIEMERLRKMLKKVTK,not soluble
4,MGSDKIHHHHHHMSALLEVKGLNVSFRQDGRISQAVRGVSFTVNRGETVALVGESGSGKSVSALSTVSLLGDSAIVEGSVTYDGQEMIGASEQRLMDVRGNDISFIFQEPMTSLNPLHTIRKQMAESLALHQGLVGAAALERILELLVKVGIRDPETRLDAYPHQLSGGQRQRVMIAMALANKPDILIADEPTTALDVTIQAQILELLADLQREENMGMLFITHDLGIVRRIADRVCVMKAGEIVESGSTEEIFANPRHPYTRKLLAAEPKGRPDPVPAGAEEVARTDHLRVWFPIQRGFLRRTVGHVKAVNDASISVRAGETLGIVGESGSGKTTLALAIMRLIGSEGGITFRGEDVRSWSTRELRRLRKDMQIVFQDPFGSLSPRMTCAQIISEGLAIHKVDPHRAPRELVAEVMQEVGLDPATMDRYPHEFSGGQRQRIAIARAMVLRPRLLVLDEPTSALDMTVQVQIVALLRDLQRKYGLAYLFISHDLKVVRAMSHKVIVMRQGDVIEMGETEALFTNAQTDYTRSLIAAAG,not soluble
5,MSLTISLGYRALDVGRARAHALIDQLSARESVELLCEAFEVPRSCYYNHRLRRRNPDVERVRLRSRVNELFTQSRSAAGSRSIVLMMHEDGEQIGRFKVRSLMRELGLISKQPGSHAYRKATVERPDIPNILNRAFDVPAPNQVWCGDITYIWAQGKWHYLAVVMDLFARRVVGWALSSKPDTDLVIKALDMAYEQRGKPQGLLFHSDQGAQYGSRQFRQRLWRYRIRQSMSRRGNCWDNAPMERVFRSLKTEWIPTVGYMTAQEAQRDISHYLMHRYNWIRPHQFNNGLAPAQSEKRLNVVSGISEGHHHHHH,not soluble
6,MIEIKVPELAESITEGTISQWLLNVGDKVEKGGSVVELETDKVNVEIIAEDSGIVSKLLGEPGDTVEVGATIAILDANGAPVAVSTPAPAEQSKQETAEAPKAAAPSAEQTATLQGLPNTNRPIASPAARKMARELGIDLNDVRSTDPLGRVRPHDVQAHAAAPKEAPAAPKSPAPAPVAKTEFEKPVERVKMSRRRQTIAKRLVEVQQTSAMLTTFNEVDMTAIMELRKERKDAFEKKHDVRLGFMSFFTKAVVAALKQFPLLNAEIQGDELIIKKFYDIGIAVAAPDGLVVPVVRDANQLNFAEIESEIRELGKKARDNKLSLKELQGGTFTITNGGVFGSLMSTPILNSPQVGILGMHKIQVRPVAIDNERMENRPMMYIALSYDHRIVDGKEAVSFLVAVKDMLEDPKSLLLEG,not soluble
7,MGSDKIHHHHHHMSARIPTLDITRFDSDREAFVAELGAAYRQWGFAGIRNHGIAQSDIDAAYEVFKAFFALPDEVKRSYHVPGSGGARGYTAFGVETAKDSKHFDLKEFWHIGREIPDDSPYRAVMAPNLWPTEVPGFRERGYHLYQQLDQLGSRVLSALALHIGLPQDYFADKTDHGNSILRPIHYPPITSDDIPNVRAGAHGDINFITLLVGASAAGLEVRSNEGEWVPFTADADTIVVNIGDMLQRLTNHVYPSTIHRVVNPPGEEARKPRYSVPFFLHPNPDFLIDVLPSCISADNPSRYPEPITAHGFLEERLREIKLK,not soluble
8,MWLPTPLGPLWLEVSPLGVRRLEPALYPRGPEAEGALALRVREAVQAYFAGERPDFLDLPLDYTGLSPARLRLYERVRLVPYGRTVSYGALGRELGLSPRAVGAALRACPFFLLVPAHRVIHADGRLGGFQGQEGLKLWLLRFEGAL,soluble
